{"source": "patent US20050287164A1", "about": "(INHIBITEX, published 2005)", "target": "T1, Clf40 (A domain of ClfA, AA 40-559, recombinant, six-histidine fusion) (Staphylococcus aureus strain Newman, UniProt Q53653 40-559)", "T1 construct": "also called ClfA 40", "T1 sequence": "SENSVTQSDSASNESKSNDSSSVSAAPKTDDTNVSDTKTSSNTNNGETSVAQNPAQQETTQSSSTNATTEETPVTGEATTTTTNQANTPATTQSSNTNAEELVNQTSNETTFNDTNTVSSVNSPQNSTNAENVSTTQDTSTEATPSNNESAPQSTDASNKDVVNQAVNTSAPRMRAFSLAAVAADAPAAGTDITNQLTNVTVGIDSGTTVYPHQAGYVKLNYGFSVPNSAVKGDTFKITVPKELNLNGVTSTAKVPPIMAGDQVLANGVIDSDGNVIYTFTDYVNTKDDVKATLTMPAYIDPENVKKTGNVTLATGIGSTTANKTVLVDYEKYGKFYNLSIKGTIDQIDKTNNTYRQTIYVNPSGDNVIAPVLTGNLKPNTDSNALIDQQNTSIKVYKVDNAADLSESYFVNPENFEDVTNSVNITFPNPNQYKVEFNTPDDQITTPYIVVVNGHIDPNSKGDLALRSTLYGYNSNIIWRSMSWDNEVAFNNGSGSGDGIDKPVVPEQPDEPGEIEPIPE", "test": "Biacore 3000, Mab captured by rabbit anti-mouse Fc, Clf protein in flow"}
{"binder": "Monoclonal antibody 12-9 (antibody, V domains shown, also called F12-9; Mab 12-9) VH: QVQLKESGPGLVAPSQSLSITCAISGFSLSRYSVHWVRQPPGKGLEWLGMIWGGGNTDYNSALKSRLSISKDNSKSQVFLKMNSLQTDDTAMYYCARKGEFYYGYDGFVYWGQGTLVTVSA VL: NIMMTQSPSSLAVSAGEKVTMSCKSSQSVLYSSNQKNYLAWYQQKPGQSPKLLIYWASTRESGVPDRFTGSGSGTDFTLTISSVQAEDLAVYYCHQYLSSYTFGGGTKLEIK", "values": [{"measurement": "kon", "value": 774000, "unit": "M⁻¹ s⁻¹"}]}
